One block for each molecule: values may come before it.
Columns and labels:
[1] = tested on: T1, Nc1ncnc2c1ncn2[C@@H]1O[C@H](COP(=O)(O)OP(=O)(O)OP(=O)(O)O)[C@@H](O)[C@H]1O; assay: RP-HPLC of cAMP, initial rates, Hill fit; type: biochemical, Catenaria anguillulae; settings: ATP/Mn2+, pH 7.5, 22 °C
T1 construct: CaAC is a homodimer in the crystal
Source text: RP-HPLC of cAMP, initial rates, Hill fit on CaGC (mutant form: CaAC)

CaRhGC = assay: RP-HPLC of cGMP, initial rates, Hill fit; type: biochemical, Catenaria anguillulae; settings: GTP/Mn2+, pH 7.5, 22 °C, 522 nm light 0.010 mW mm^-2, dark activity subtracted, detergent
Source text: RP-HPLC of cGMP, initial rates, Hill fit on CaRhGC

[2] = substrate: Nc1nc2c(ncn2[C@@H]2O[C@H](COP(=O)(O)OP(=O)(O)OP(=O)(O)O)[C@@H](O)[C@H]2O)c(=O)[nH]1; assay: RP-HPLC of cGMP, initial rates, Hill fit; type: biochemical, Blastocladiella emersonii; settings: GTP/Mn2+, pH 7.5, 22 °C, 522 nm light 0.010 mW mm^-2, dark activity subtracted, detergent
Source text: RP-HPLC of cGMP, initial rates, Hill fit on BeRhGC

[3] = substrate: Nc1nc2c(ncn2[C@@H]2O[C@H](COP(=O)(O)OP(=O)(O)OP(=O)(O)O)[C@@H](O)[C@H]2O)c(=O)[nH]1; assay: RP-HPLC of cGMP, initial rates, Hill fit; type: biochemical, Blastocladiella emersonii; settings: GTP/Mn2+, pH 7.5, 22 °C
Source text: RP-HPLC of cGMP, initial rates, Hill fit on BeGC

Molecule: CaGC (mutant form: CaAC) (Catenaria anguillulae PL171; C201D/E132K)
Km [1]: 6.09 ± 1.74 mM | kcat [1]: 1.012 s⁻¹ | kcat/Km [1]: 170 M⁻¹ s⁻¹

Km (CaRhGC): 6.1 ± 5.59 mM
Molecule: Nc1nc2c(ncn2[C@@H]2O[C@H](COP(=O)(O)OP(=O)(O)OP(=O)(O)O)[C@@H](O)[C@H]2O)c(=O)[nH]1 [GTP]

B1: BeRhGC (Blastocladiella emersonii) (protein)
chain: MKDKDNNLRGACSSCNCPEYCFSPTSTLCDDCKCSVTKHPIVEQPLSRNGSFRSSGASLLPSPSSPNVKITSTVGLRSRKSESQANVRGSMISNSNSGSRSNNSGGAGGGSGGSSSSKGGSALANYQSAMSELWSWNMMLSTPSLKFLTVQFTTWIVLTTVGAIYTLFFHERQAYNRGWADIWYGYGAFGFGLGLSFAYMGFTGARNPEKKALSLCLLGVNFISFMSYIIIMLRLTPTIEGTMANPVEPARYLEWIATCPVLILLISEITQYPHDPYKVIVNDYALCLAGFVGAISAQQPWGDLAHFVSCLCFSYVVYSLWSCFTGAIDGETQCNVEKSGLRWIRFSTITTWSLFPITWFSYTSGLISFTVAEAGFSMIDIGAKVFLTLVLVNSTVEQAQNQKVDAITAIAEELENQINNCDAILQKMMPEGVLEQLKNGQATEAKEYESVTVFFSDITNFTVISSRTSTKDMMATLNKLWLEYDAIAKRWGVYKVETIGDAYLGVTGAPDVVPDHAERACNFAVDIIEMIKSFKTITGESINIRIGLNSGPVTAGVLGDLNPHWCLVGDTVNTASRMESTSKAGHIHISESTYHFIKSKFVTQPLDVMEVKGKGKMQTYWVLGRK
Km [2]: 0.92 ± 0.27 mM | kcat [2]: 1.07 s⁻¹ | kcat/Km [2]: 1200 M⁻¹ s⁻¹

B2: BeGC (Blastocladiella emersonii) (protein)
chain: TEAKEYESVTVFFSDITNFTVISSRTSTKDMMATLNKLWLEYDAIAKRWGVYKVETIGDAYLGVTGAPDVVPDHAERACNFAVDIIEMIKSFKTITGESINIRIGLNSGPVTAGVLGDLNPHWCLVGDTVNTASRMESTSKAGHIHISESTYHFIKSKFVTQPLDVMEVKGKGKMQTYWVLGRK
Km [3]: 2.16 ± 0.30 mM | kcat [3]: 0.339 s⁻¹ | kcat/Km [3]: 160 M⁻¹ s⁻¹

— article PMC5967339, “Rhodopsin-cyclases for photocontrol of cGMP/cAMP and 2.3 Å structure of the adenylyl cyclase domain” (Nature Communications, 2018)
